Measured values published in publication PMC9961625, “Anti-Trypanosoma cruzi Properties of Sesquiterpene Lactones Isolated from Stevia spp.: In Vitro and In Silico Studies” (Pharmaceutics, 2023).

System: Cc1cc(=O)oc2cc(NC(=O)[C@@H]3CCCN3C(=O)CNC(=O)OCc3ccccc3)ccc12
Assay: purified protein

## prolyl oligopeptidase of 80 kDa (Tc80) (Trypanosoma cruzi)
  Km: 5.9 µM
